Data from IntAct's records for PubMed 25910212.

B1: Mothers against decapentaplegic homolog 3 (Homo sapiens), P84022 (parent)
chain: MSSILPFTPPIVKRLLGWKKGEQNGQEEKWCEKAVKSLVKKLKKTGQLDELEKAITTQNVNTKCITIPRSLDGRLQVSHRKGLPHVIYCRLWRWPDLHSHHELRAMELCEFAFNMKKDEVCVNPYHYQRVETPVLPPVLVPRHTEIPAEFPPLDDYSHSIPENTNFPAGIEPQSNIPETPPPGYLSEDGETSDHQMNHSMDAGSPNLSPNPMSPAHNNLDLQPVTYCEPAFWCSISYYELNQRVGETFHASQPSMTVDGFTDPSNSERFCLGLLSNVNRNAAVELTRRHIGRGVRLYYIGGEVFAECLSDSAIFVQSPNCNQRYGWHPATVCKIPPGCNLKIFNNQEFAALLAQSVNQGFEAVYQLTRMCTIRMSFVKGWGAEYRRQTVTSTPCWIELHLNGPLQWLDKVLTQMGSPSIRCSSVS
partner: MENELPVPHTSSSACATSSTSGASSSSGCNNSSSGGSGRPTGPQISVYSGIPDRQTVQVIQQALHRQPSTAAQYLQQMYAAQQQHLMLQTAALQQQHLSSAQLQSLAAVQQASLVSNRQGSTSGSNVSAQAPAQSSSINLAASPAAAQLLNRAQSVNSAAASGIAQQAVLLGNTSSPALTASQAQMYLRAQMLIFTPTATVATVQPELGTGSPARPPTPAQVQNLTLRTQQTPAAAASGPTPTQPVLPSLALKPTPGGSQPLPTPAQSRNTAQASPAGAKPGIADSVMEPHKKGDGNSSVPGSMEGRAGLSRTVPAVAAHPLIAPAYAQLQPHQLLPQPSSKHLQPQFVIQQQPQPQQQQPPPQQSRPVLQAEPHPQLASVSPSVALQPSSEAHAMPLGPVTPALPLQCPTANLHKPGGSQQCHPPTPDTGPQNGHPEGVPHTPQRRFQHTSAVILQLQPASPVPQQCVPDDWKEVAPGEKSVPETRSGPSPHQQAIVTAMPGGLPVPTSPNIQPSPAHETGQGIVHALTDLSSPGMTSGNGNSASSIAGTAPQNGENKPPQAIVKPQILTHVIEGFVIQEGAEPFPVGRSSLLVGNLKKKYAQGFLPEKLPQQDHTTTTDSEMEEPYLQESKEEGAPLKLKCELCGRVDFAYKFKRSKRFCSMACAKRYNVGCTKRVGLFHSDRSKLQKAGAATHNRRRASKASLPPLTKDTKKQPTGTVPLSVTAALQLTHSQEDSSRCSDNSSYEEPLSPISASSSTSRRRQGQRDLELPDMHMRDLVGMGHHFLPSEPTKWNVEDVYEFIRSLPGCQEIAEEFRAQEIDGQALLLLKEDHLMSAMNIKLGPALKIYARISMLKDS
B2: Prelamin-A/C (Homo sapiens), P02545-2 (parent)
chain: METPSQRRATRSGAQASSTPLSPTRITRLQEKEDLQELNDRLAVYIDRVRSLETENAGLRLRITESEEVVSREVSGIKAAYEAELGDARKTLDSVAKERARLQLELSKVREEFKELKARNTKKEGDLIAAQARLKDLEALLNSKEAALSTALSEKRTLEGELHDLRGQVAKLEAALGEAKKQLQDEMLRRVDAENRLQTMKEELDFQKNIYSEELRETKRRHETRLVEIDNGKQREFESRLADALQELRAQHEDQVEQYKKELEKTYSAKLDNARQSAERNSNLVGAAHEELQQSRIRIDSLSAQLSQLQKQLAAKEAKLRDLEDSLARERDTSRRLLAEKEREMAEMRARMQQQLDEYQELLDIKLALDMEIHAYRKLLEGEEERLRLSPSPTSQRSRGRASSHSSQTQGGGSVTKKRKLESTESRSSFSQHARTSGRVAVEEVDEEGKFVRLRNKSNEDQSMGNWQIKRQNGDDPLLTYRFPPKFTLKAGQVVTIWAAGAGATHSPPTDLVWKAQNTWGCGNSLRTALINSTGEEVAMRKLVRSVTVVEDDEDEDGDDLLHHHHVSGSRR
B3: LHFPL tetraspan subfamily member 5 protein (Homo sapiens), Q8TAF8 (parent)
chain: MVKLLPAQEAAKIYHTNYVRNSRAVGVMWGTLTICFSVLVMALFIQPYWIGDSVNTPQAGYFGLFSYCVGNVLSSELICKGGPLDFSSIPSRAFKTAMFFVALGMFLIIGSIICFSLFFICNTATVYKICAWMQLAAATGLMIGCLVYPDGWDSSEVRRMCGEQTGKYTLGHCTIRWAFMLAILSIGDALILSFLAFVLGYRQDKLLPDDYKADGTEEV
partner: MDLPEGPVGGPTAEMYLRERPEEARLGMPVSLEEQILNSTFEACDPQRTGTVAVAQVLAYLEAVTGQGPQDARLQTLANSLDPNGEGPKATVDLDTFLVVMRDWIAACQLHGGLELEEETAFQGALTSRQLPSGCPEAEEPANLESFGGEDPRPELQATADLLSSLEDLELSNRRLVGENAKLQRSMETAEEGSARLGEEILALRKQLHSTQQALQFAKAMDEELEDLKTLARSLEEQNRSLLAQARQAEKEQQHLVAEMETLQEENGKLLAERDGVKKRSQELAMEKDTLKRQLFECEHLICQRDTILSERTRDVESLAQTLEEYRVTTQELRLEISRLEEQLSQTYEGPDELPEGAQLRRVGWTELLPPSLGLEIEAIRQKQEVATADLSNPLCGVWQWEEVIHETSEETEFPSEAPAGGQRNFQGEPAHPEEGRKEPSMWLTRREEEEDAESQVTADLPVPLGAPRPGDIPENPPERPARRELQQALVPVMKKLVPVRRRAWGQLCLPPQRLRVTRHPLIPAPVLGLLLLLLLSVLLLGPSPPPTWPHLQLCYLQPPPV
B4: Emerin (Homo sapiens), P50402 (parent)
chain: MDNYADLSDTELTTLLRRYNIPHGPVVGSTRRLYEKKIFEYETQRRRLSPPSSSAASSYSFSDLNSTRGDADMYDLPKKEDALLYQSKGYNDDYYEESYFTTRTYGEPESAGPSRAVRQSVTSFPDADAFHHQVHDDDLLSSSEEECKDRERPMYGRDSAYQSITHYRPVSASRSSLDLSYYPTSSSTSFMSSSSSSSSWLTRRAIRPENRAPGAGLGQDRQVPLWGQLLLFLVFVIVLFFIYHFMQAEEGNPF
partner: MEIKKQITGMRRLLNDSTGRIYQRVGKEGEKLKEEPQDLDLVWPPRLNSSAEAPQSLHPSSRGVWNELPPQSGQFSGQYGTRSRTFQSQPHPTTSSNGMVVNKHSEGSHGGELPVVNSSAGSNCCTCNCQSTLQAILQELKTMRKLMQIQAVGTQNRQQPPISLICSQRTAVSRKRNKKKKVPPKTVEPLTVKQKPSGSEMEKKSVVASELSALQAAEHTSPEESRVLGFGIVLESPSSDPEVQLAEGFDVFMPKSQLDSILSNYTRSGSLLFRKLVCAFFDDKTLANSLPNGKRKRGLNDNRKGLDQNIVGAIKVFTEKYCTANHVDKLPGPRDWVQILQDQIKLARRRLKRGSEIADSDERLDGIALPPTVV

Variants of: B1
Settings: with PHC2, Q8IXK0-5

| Variant | effect of a mutation on the interaction |
| --- | --- |
| I170V | with no effect |

Variants of: B2
Settings: with syce1_human SYCE1, Q8N0S2
syce1_human SYCE1, Q8N0S2, sequence (Q8N0S2 whole entry): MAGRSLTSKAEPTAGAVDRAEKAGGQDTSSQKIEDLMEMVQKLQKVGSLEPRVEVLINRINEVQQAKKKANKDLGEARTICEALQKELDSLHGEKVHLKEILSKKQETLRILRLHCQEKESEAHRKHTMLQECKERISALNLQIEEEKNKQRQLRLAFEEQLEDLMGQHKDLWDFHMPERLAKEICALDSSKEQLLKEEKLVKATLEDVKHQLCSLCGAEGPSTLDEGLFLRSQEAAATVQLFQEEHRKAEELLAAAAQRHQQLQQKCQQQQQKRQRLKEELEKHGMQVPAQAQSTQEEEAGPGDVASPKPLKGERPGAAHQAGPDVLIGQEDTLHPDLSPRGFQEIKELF

| Variant | effect of a mutation on the interaction |
| --- | --- |
| METPSQRRATRSGAQASSTPLSPTRITRLQEKEDLQELNDRLAVYIDRVRSLETENAGLGLRITESEEVVSREVSGIKAAYEAELGDARKTLDSVAKERARLQLELSKVREEFKELKARNTKKEGDLIAAQARLKDLEALLNSKEAALSTALSEKRTLEGELHDLRGQVAKLEAALGEAKKQLQDEMLRRVDAENRLQTMKEELDFQKNIYSEELRETKRRHETRLVEIDNGKQREFESRLADALQELRAQHEDQVEQYKKELEKTYSAKLDNARQSAERNSNLVGAAHEELQQSRIRIDSLSAQLSQLQKQLAAKEAKLRDLEDSLARERDTSRRLLAEKEREMAEMRARMQQQLDEYQELLDIKLALDMEIHAYRKLLEGEEERLRLSPSPTSQRSRGRASSHSSQTQGGGSVTKKRKLESTESRSSFSQHARTSGRVAVEEVDEEGKFVRLRNKSNEDQSMGNWQIKRQNGDDPLLTYRFPPKFTLKAGQVVTIWAAGAGATHSPPTDLVWKAQNTWGCGNSLRTALINSTGEEVAMRKLVRSVTVVEDDEDEDGDDLLHHHHVSGSRR [R60G] | disrupting interaction strength |

Variants of: B3
Settings: with kash5_human KASH5, Q8N6L0

| Variant | effect of a mutation on the interaction |
| --- | --- |
| MVKLLPAQEAAKIYHTNYVRNSRAVGVMWGTLTICFSVLVMALFIQPYWIGDSVNTPQAGYFGLFSYCVGNVLSSELICKGGPLDFSSIPSRAFKTAMFFVALGMFLIIGSIICFSLFFICNTATVCKICAWMQLAAATGLMIGCLVYPDGWDSSEVRRMCGEQTGKYTLGHCTIRWAFMLAILSIGDALILSFLAFVLGYRQDKLLPDDYKADGTEEV [Y127C] | with no effect |
| MVKLLPAQEAAKIYHTNYVRNSRAVGVMWGTLTICFSVLVMALFIQPYWIGDSVNTPQAGYFGLFSYCVGNVLSSELICKGGPLDFSSIPSRAFKTAMFFVALGMFLIIGSIICFSLFFICNTATVYKICAWMQLAAATGLMIGCLVYPDGWDSSEVRRMCGEQMGKYTLGHCTIRWAFMLAILSIGDALILSFLAFVLGYRQDKLLPDDYKADGTEEV [T165M] | with no effect |

Variants of: B4
Settings: with BEND7, Q8N7W2-2

| Variant | effect of a mutation on the interaction |
| --- | --- |
| MDNYADLSDTELTTLLRRYNIPHGPVVGSTRRLYEKKIFEYETQRRRLSPPSSSAASSYSFSDLNSTRGDAVMYDLPKKEDALLYQSKGYNDDYYEESYFTTRTYGEPESAGPSRAVRQSVTSFPDADAFHHQVHDDDLLSSSEEECKDRERPMYGRDSAYQSITHYRPVSASRSSLDLSYYPTSSSTSFMSSSSSSSSWLTRRAIRPENRAPGAGLGQDRQVPLWGQLLLFLVFVIVLFFIYHFMQAEEGNPF [D72V] | with no effect |
| MDNYADLSDTELTTLLRRYNIPHGPVVGSTRRLYEKKIFEYETQRRRLSPPSSSAASSYSFSDLNSTRGDADMYDLPKKEDALLYQSKGYNDDYYEESYFTTRTYGEPESAGPSRAVRQSVTSFPDADAFHHQVHDDDLLSSSEEECKDRERPMYGRDSAYQSITHYRPVSASRSSLDLSYYHTSSSTSFMSSSSSSSSWLTRRAIRPENRAPGAGLGQDRQVPLWGQLLLFLVFVIVLFFIYHFMQAEEGNPF [P183H] | with no effect |
